For assay [1], the target named is SidF C-trim (residues 1-443) (Aspergillus fumigatus) (UniProt Q4WF55). The experiment in a line: SEC.
For assay [2] the target is unchanged. The experiment in a line: SAXS.

This is an account of results in publication PMC11751504.

As a reminder, the stoichiometry N is a count of units in the complex or per binding partner. As to “SidF C-trim (residues 1-443) (from UniProt Q4WF55 1-443) (domain or fragment)”, the values for the stoichiometry N in assay [1] and in assay [2] were 4 and 2, respectively.
